± gives the standard deviation of the averaged measurements.
What follows are sequences tested on Saccharomyces cerevisiae (assay: protein stability index of tFT-peptide fusion (C-terminal peptide) (PSI (0-1 scale)); higher = more stable (slower turnover)). Conditions: genetic background: cdc34-1; temperature: 37 C.
Description: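 MPS profiling in S. cerevisiae of the tFT-X12 degron library: putative degron peptides plus stable controls, 12 aa, fused to the C-terminus of a sfGFP-mCherry timer. Cells are FACS-sorted into 8 mCherry/sfGFP bins and deep-sequenced. PSI runs from 0 (unstable) to 1 (stable). Backgrounds are wild type, das1Δ and doa10Δ at 30 °C, and wild type, das1Δ, cdc34-1 and cdc53-1 at 37 °C; 2-3 technical replicates each.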
LLSFYFVLAYMV showed a protein stability index of 0.357 ± 0.034.
Work on LLSYMVSLVVYL yielded a protein stability index of 0.127 ± 0.04.
For LLYYQVFKTRRL, the protein stability index was 0.674 ± 0.021.
LNQRGKRKYLIM was tested, and the protein stability index was 0.711 ± 0.058.
In the case of LNTVALIRIVVS, the protein stability index is reported as 0.0601 ± 0.033.
LPILFPAALRLY was tested, and the protein stability index was 0.552 ± 0.0097.
In the case of LPPPYSPRLFHN, the protein stability index is reported as 0.552 ± 0.065.
For LPTVSRPGALIC, the protein stability index was 0.562 ± 0.016.
Sequence LRCRAATSRTVS has a protein stability index of 0.69 ± 0.029.
LRNYKCLRLLIC showed a protein stability index of 0.293 ± 0.009.
Sequence LRPTFLLLFRPL has a protein stability index of 0.292 ± 0.022.
LRSLLIIYLLIF showed a protein stability index of 0.2561 ± 0.0023.
LSACYSRYVFVS gave a protein stability index of 0.398 ± 0.039.
Sequence LSASFYFVFFSN has a protein stability index of 0.56 ± 0.013.
LSILLFVQFFPP showed a protein stability index of 0.317 ± 0.023.
LSLPTPLPSPPA was tested, and the protein stability index was 0.656 ± 0.044.
LSPLSPLLFRLI gave a protein stability index of 0.482 ± 0.04.
Work on LSRLIFKVSVLM yielded a protein stability index of 0.57 ± 0.0078.
In the case of LSRRFSLALFWT, the protein stability index is reported as 0.57 ± 0.016.
With LSSRGGRCRRLV the protein stability index was 0.714 ± 0.059.
Sequence LVFAFFLLSFFI has a protein stability index of 0.478 ± 0.035.
With LVFSFFFLFFFM the protein stability index was 0.449 ± 0.053.
LVLFYLWSSVWA showed a protein stability index of 0.4 ± 0.014.
Sequence LVLLIQKFLTDK has a protein stability index of 0.7442 ± 0.0063.
Work on LVLSFVMLVSGH yielded a protein stability index of 0.183 ± 0.014.
Work on LVPVWVGLRVLF yielded a protein stability index of 0.422 ± 0.021.
With LVSCGNFLVFCF the protein stability index was 0.299 ± 0.0056.
LVSSYVPFFFAL was tested, and the protein stability index was 0.6057 ± 0.0033.
LVSVLLLFWFLF gave a protein stability index of 0.4146 ± 0.00025.
In the case of LVYCWFAEYFLV, the protein stability index is reported as 0.323 ± 0.043.
Sequence LVYLVCAYSECE has a protein stability index of 0.44 ± 0.015.
LWCLVWGGVWGV gave a protein stability index of 0.458 ± 0.014.
Sequence LWFVIYLLCFFV has a protein stability index of 0.394 ± 0.015.
MFFSWVLSISLT showed a protein stability index of 0.0242 ± 0.0074.
Work on MIVAIQLVDHPP yielded a protein stability index of 0.459 ± 0.033.
In the case of MLECIIHLTITR, the protein stability index is reported as 0.417 ± 0.072.
MLSVVSFVSCTC gave a protein stability index of 0.181 ± 0.0023.
MRVYLVLWADSC was tested, and the protein stability index was 0.236 ± 0.034.
Work on MSIWKIFIWRLG yielded a protein stability index of 0.524 ± 0.017.
MVAHTVRVKCGI was tested, and the protein stability index was 0.638 ± 0.049.
For MVVILLVHWEYV, the protein stability index was 0.15 ± 0.011.
MWFFFICYFLSV was tested, and the protein stability index was 0.277 ± 0.0059.
Work on MYESIRILVNKV yielded a protein stability index of 0.62 ± 0.015.
NFCVLLQFCVLV showed a protein stability index of 0.437 ± 0.023.
For NFSLFVHFLGLC, the protein stability index was 0.668 ± 0.047.
NNGLLLDILIKA showed a protein stability index of 0.388 ± 0.034.
For NTNITHHSVKLR, the protein stability index was 0.671 ± 0.017.
With NVWCWGASCFFC the protein stability index was 0.709 ± 0.048.
PALLLFLRNLLL was tested, and the protein stability index was 0.714 ± 0.022.
Sequence PAPANRPTPRPV has a protein stability index of 0.666 ± 0.041.
PCVCFIILGMLS was tested, and the protein stability index was 0.42 ± 0.013.
In the case of PFARIIDILLVI, the protein stability index is reported as 0.486 ± 0.022.
Work on PFIPLLLAPALA yielded a protein stability index of 0.4032 ± 0.0011.
PFPRCRLIFFFM showed a protein stability index of 0.5172 ± 0.0045.
Work on PFRSAYYLLFLL yielded a protein stability index of 0.496 ± 0.048.
PFVATRVSCFLT showed a protein stability index of 0.542 ± 0.013.
Sequence PHFDLLLCLSLN has a protein stability index of 0.625 ± 0.026.
In the case of PHLDLYRLSALI, the protein stability index is reported as 0.705 ± 0.01.
PHPPRPPCPPIL was tested, and the protein stability index was 0.673 ± 0.041.
Sequence PHVSALSRDPES has a protein stability index of 0.698 ± 0.038.
PISNMSIILLFL gave a protein stability index of 0.495 ± 0.072.
With PLFFGVQAFGGV the protein stability index was 0.727 ± 0.026.
Sequence PLPCFVLRLPVF has a protein stability index of 0.39 ± 0.037.
With PLPSEKAPTLLL the protein stability index was 0.686 ± 0.019.
PLPSFLYFILLR was tested, and the protein stability index was 0.22 ± 0.062.
Sequence PLRKYLRHLLSL has a protein stability index of 0.59822 ± 0.00032.
PLRRPPPRPPWP gave a protein stability index of 0.65 ± 0.025.
Work on PLSPTNLSRLLS yielded a protein stability index of 0.658 ± 0.034.
In the case of PPGSPPGSLRPT, the protein stability index is reported as 0.67 ± 0.038.
In the case of PPHRTLLQLRTN, the protein stability index is reported as 0.599 ± 0.072.
Sequence PPPAPPLSMPAP has a protein stability index of 0.647 ± 0.064.
PPPLCSTCIRCC was tested, and the protein stability index was 0.197 ± 0.035.
Sequence PPQDQAPVGVND has a protein stability index of 0.672 ± 0.041.
PPRCLLPPPSRS was tested, and the protein stability index was 0.652 ± 0.034.
In the case of PPRDPGGLFTPF, the protein stability index is reported as 0.732 ± 0.017.
In the case of PPSPAPLPDSLP, the protein stability index is reported as 0.662 ± 0.036.
In the case of PPSPPLLFHFPP, the protein stability index is reported as 0.669 ± 0.049.
PPTLLPPLHPAP gave a protein stability index of 0.681 ± 0.056.

Same assay, conditions: genetic background: cdc53-1; temperature: 37 C
For LLSFYFVLAYMV, the protein stability index was 0.393 ± 0.026.
LLSYMVSLVVYL gave a protein stability index of 0.231 ± 0.03.
Sequence LLYYQVFKTRRL has a protein stability index of 0.686 ± 0.037.
Work on LNQRGKRKYLIM yielded a protein stability index of 0.751 ± 0.054.
Sequence LNTVALIRIVVS has a protein stability index of 0.132 ± 0.015.
In the case of LPILFPAALRLY, the protein stability index is reported as 0.577 ± 0.028.
Work on LPPPYSPRLFHN yielded a protein stability index of 0.7103 ± 0.0065.
LPTVSRPGALIC gave a protein stability index of 0.689 ± 0.032.
Work on LRCRAATSRTVS yielded a protein stability index of 0.738 ± 0.015.
For LRNYKCLRLLIC, the protein stability index was 0.476 ± 0.0082.
Work on LRPTFLLLFRPL yielded a protein stability index of 0.283 ± 0.037.
With LRSLLIIYLLIF the protein stability index was 0.292 ± 0.025.
LSACYSRYVFVS was tested, and the protein stability index was 0.553 ± 0.038.
In the case of LSASFYFVFFSN, the protein stability index is reported as 0.6731 ± 0.0018.
In the case of LSILLFVQFFPP, the protein stability index is reported as 0.371 ± 0.0032.
Work on LSLPTPLPSPPA yielded a protein stability index of 0.695 ± 0.041.
LSPLSPLLFRLI was tested, and the protein stability index was 0.509 ± 0.012.
LSRLIFKVSVLM gave a protein stability index of 0.602 ± 0.0096.
With LSRRFSLALFWT the protein stability index was 0.683 ± 0.051.
LSSRGGRCRRLV gave a protein stability index of 0.727 ± 0.028.
With LVFAFFLLSFFI the protein stability index was 0.554 ± 0.015.
LVFSFFFLFFFM showed a protein stability index of 0.47 ± 0.029.
With LVLFYLWSSVWA the protein stability index was 0.445 ± 0.0055.
Sequence LVLLIQKFLTDK has a protein stability index of 0.7187 ± 0.0016.
LVLSFVMLVSGH was tested, and the protein stability index was 0.313 ± 0.02.
Work on LVPVWVGLRVLF yielded a protein stability index of 0.429 ± 0.0053.
Sequence LVSCGNFLVFCF has a protein stability index of 0.311 ± 0.025.
LVSSYVPFFFAL was tested, and the protein stability index was 0.717 ± 0.046.
In the case of LVSVLLLFWFLF, the protein stability index is reported as 0.368 ± 0.014.
With LVYCWFAEYFLV the protein stability index was 0.561 ± 0.011.
LVYLVCAYSECE showed a protein stability index of 0.463 ± 0.039.
In the case of LWCLVWGGVWGV, the protein stability index is reported as 0.5417 ± 0.005.
LWFVIYLLCFFV was tested, and the protein stability index was 0.395 ± 0.0045.
MFFSWVLSISLT was tested, and the protein stability index was 0.058 ± 0.011.
MIVAIQLVDHPP was tested, and the protein stability index was 0.547 ± 0.0094.
Sequence MLECIIHLTITR has a protein stability index of 0.577 ± 0.095.
Sequence MLSVVSFVSCTC has a protein stability index of 0.17 ± 0.021.
MRVYLVLWADSC gave a protein stability index of 0.345 ± 0.026.
MSIWKIFIWRLG showed a protein stability index of 0.627 ± 0.037.
With MVAHTVRVKCGI the protein stability index was 0.66 ± 0.021.
Sequence MVVILLVHWEYV has a protein stability index of 0.222 ± 0.032.
For MWFFFICYFLSV, the protein stability index was 0.361 ± 0.034.
MYESIRILVNKV was tested, and the protein stability index was 0.707 ± 0.016.
In the case of NFCVLLQFCVLV, the protein stability index is reported as 0.477 ± 0.023.
NFSLFVHFLGLC was tested, and the protein stability index was 0.703 ± 0.024.
Work on NNGLLLDILIKA yielded a protein stability index of 0.399 ± 0.073.
In the case of NTNITHHSVKLR, the protein stability index is reported as 0.7346 ± 0.0071.
NVWCWGASCFFC showed a protein stability index of 0.797 ± 0.01.
PALLLFLRNLLL was tested, and the protein stability index was 0.7282 ± 0.0042.
For PAPANRPTPRPV, the protein stability index was 0.7177 ± 0.006.
PCVCFIILGMLS gave a protein stability index of 0.515 ± 0.012.
PFARIIDILLVI gave a protein stability index of 0.5346 ± 0.0045.
For PFIPLLLAPALA, the protein stability index was 0.409 ± 0.0068.
In the case of PFPRCRLIFFFM, the protein stability index is reported as 0.7266 ± 0.0031.
With PFRSAYYLLFLL the protein stability index was 0.6347 ± 0.0016.
For PFVATRVSCFLT, the protein stability index was 0.704 ± 0.024.
For PHFDLLLCLSLN, the protein stability index was 0.753 ± 0.057.
PHLDLYRLSALI gave a protein stability index of 0.751 ± 0.016.
Work on PHPPRPPCPPIL yielded a protein stability index of 0.736 ± 0.015.
Work on PHVSALSRDPES yielded a protein stability index of 0.728 ± 0.0092.
With PISNMSIILLFL the protein stability index was 0.595 ± 0.043.
PLFFGVQAFGGV showed a protein stability index of 0.79052 ± 0.0004.
Sequence PLPCFVLRLPVF has a protein stability index of 0.429 ± 0.033.
In the case of PLPSEKAPTLLL, the protein stability index is reported as 0.735 ± 0.01.
PLPSFLYFILLR was tested, and the protein stability index was 0.196 ± 0.024.
Work on PLRKYLRHLLSL yielded a protein stability index of 0.7453 ± 0.0022.
In the case of PLRRPPPRPPWP, the protein stability index is reported as 0.7054 ± 0.0032.
For PLSPTNLSRLLS, the protein stability index was 0.7642 ± 0.0043.
PPGSPPGSLRPT showed a protein stability index of 0.715 ± 0.027.
With PPHRTLLQLRTN the protein stability index was 0.728 ± 0.035.
PPPAPPLSMPAP gave a protein stability index of 0.73 ± 0.027.
Work on PPPLCSTCIRCC yielded a protein stability index of 0.206 ± 0.038.
Work on PPQDQAPVGVND yielded a protein stability index of 0.7509 ± 0.0024.
For PPRCLLPPPSRS, the protein stability index was 0.699 ± 0.014.
PPRDPGGLFTPF was tested, and the protein stability index was 0.7854 ± 0.0062.
In the case of PPSPAPLPDSLP, the protein stability index is reported as 0.6995 ± 0.0011.
With PPSPPLLFHFPP the protein stability index was 0.756 ± 0.013.
With PPTLLPPLHPAP the protein stability index was 0.725 ± 0.0045.

Source: the supplement of paper PMC10724198
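Also: PSI is a weighted mean of sequencing reads over stability bins, variants kept only with over 10 reads, mCherry proximal and sfGFP distal, peptide attached via GGGS linker.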
